Experimental findings from paper PMC10998907 (2024) are described below.

What all share (experiment): BLI
(In general: Biolayer interferometry detects binding as a change in optical thickness at a sensor tip.)

Test [1] concerns the target T1, NiV-RBP global head domain, His-tagged (Nipah virus, UniProt Q9IH62, biotinylated for BLI only (EZ-link Sulfo-NHS-LC-Biotin)).
T1 chain: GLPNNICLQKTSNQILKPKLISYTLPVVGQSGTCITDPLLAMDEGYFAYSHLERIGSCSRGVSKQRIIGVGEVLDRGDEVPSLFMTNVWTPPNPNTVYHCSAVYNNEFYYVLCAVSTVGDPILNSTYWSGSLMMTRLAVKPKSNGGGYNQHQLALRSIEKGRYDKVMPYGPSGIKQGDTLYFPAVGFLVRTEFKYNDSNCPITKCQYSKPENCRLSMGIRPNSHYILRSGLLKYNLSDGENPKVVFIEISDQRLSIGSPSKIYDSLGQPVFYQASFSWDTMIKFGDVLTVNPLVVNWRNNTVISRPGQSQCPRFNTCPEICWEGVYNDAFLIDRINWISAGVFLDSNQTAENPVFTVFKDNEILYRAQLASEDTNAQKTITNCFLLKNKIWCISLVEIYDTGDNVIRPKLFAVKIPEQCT

In test [2] the target is T2, HeV-RBP global head domain, His-tagged (Hendra virus, UniProt O89343 183-602, biotinylated for BLI only (EZ-link Sulfo-NHS-LC-Biotin)).
Test [3] addresses T1, NiV-RBP global head domain, His-tagged.
Test [4] addresses T2, HeV-RBP global head domain, His-tagged. The source holds these as a separate data set.

What is called Kd is the free concentration of one partner at which half of the binding sites on the other are occupied at equilibrium, for simple one-to-one binding. The term koff denotes the rate constant with which the complex falls apart. Low readings indicate a long-lived complex, high ones a short-lived complex.

T2 sequence (O89343 183-602): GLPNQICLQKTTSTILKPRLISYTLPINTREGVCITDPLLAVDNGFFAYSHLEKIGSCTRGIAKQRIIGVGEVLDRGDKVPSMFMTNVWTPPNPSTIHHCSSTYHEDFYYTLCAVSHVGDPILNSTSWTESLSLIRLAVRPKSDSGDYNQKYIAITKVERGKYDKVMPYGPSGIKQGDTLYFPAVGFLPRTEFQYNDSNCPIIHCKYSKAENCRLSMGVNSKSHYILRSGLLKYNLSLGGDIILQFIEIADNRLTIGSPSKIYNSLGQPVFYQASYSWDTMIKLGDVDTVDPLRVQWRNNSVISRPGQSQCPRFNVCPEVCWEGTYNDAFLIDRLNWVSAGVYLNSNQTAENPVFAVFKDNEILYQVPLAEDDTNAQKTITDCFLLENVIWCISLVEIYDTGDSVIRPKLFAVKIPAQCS

B1: 41-6 Fab fragment (Fab, V domains shown)
VH: EVQLVQSGGGLVQPGGSLRLSCAASGFTVSSNYMSWVRQAPGKGLEWVSAISGSGGSTYYADSVKGRFTISRDNSKNTLYLQMNSLRAEDTAVYYCARDREDIVVVPAPRGYYYYYYMDVWGQGTTVTVSS
VL: QSVVTQPPSVSAAPGQKVTISCSGSSSNIGTNHLSWYQQVPGTAPKLLIYDNNKRPSGIPDRFSGSKSGTSASLAISGLQSEDEADYYCATWDDSLHAWVFGGGTKLTVL
Turning to B1, the Kd was found to be 3.6 nM in test [1] and 5.4 nM in test [2]. The koff in test [3] is 0.0002 s⁻¹; in test [4], 0.00018 s⁻¹.
